Numbering of substitutions follows the chain as printed. One block for each binder: values may come before it.
Tests used:
[1] = biological target: T1, human TNFR2 (Novoprotein, Cat #C830) (human, UniProt P20333 23-257, limits assumed); assay: competition ELISA, competitor human TNFα-Biotin; AUC against 001-WT
T1 construct: construct not described; also called human TNFR2 protein
T1 sequence (looked up): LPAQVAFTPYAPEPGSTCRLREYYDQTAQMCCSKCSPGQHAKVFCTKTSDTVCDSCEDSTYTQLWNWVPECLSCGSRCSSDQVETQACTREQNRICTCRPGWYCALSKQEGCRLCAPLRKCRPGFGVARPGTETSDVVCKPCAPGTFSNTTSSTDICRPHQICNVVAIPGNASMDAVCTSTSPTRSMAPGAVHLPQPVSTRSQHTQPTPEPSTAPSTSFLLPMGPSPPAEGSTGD
Procedure: 1 μg/ml human TNFR2 (Novoprotein, Cat #C830) was pre-coated with 100 μl/well […] in an ELISA plate. All the test TNFR2 antibodies were subjected to 2.5-fold gradient dilution from the highest concentration of 30 μg/ml; the diluted antibodies were mixed with 15 ng/ml human TNFα-Biotin (Acro Biosystem, Cat #TNA-H82E3) in equal volume, respectively; the resulting mixture was added to the ELISA plate at 100 μl/well, and incubated with shaking at room temperature for 2.0 hours. The plate was washed, and then a Streptavidin-HRP working solution (diluted at 1:10000) was added at 100 μl/well, and the mixture was incubated with shaking at room temperature for 40 minutes. The plate was washed again, and then the substrate TMB of HRP was added to develop colour. A stop solution was added to stop the reaction, and then a microplate reader (MD 13) was used to read the absorbance value. The inhibitory curve of an antibody was drawn with antibody concentration as the abscissa and corresponding OD value as the ordinate, and fitted with four parameters (GraphPad Prism9) to calculate the IC50 value. The smaller the IC50 value, the stronger the ability of an antibody to inhibit the binding of human TNFα to human TNFR2. The blocking effect of a humanized antibody was normalized to its corresponding human-murine chimeric antibody WT. The higher the percentage value, the better the inhibitory effect of the humanized antibody.

[2] = biological target: T2, human TNFR2 on the surface of CHO-TNFR2 cells (human, UniProt P20333 23-461); assay: competition flow cytometry on CHO-TNFR2 cells, competitor TNFα-biotin; AUC against 001-WT
T2 construct: whole, on cells
T2 sequence (looked up): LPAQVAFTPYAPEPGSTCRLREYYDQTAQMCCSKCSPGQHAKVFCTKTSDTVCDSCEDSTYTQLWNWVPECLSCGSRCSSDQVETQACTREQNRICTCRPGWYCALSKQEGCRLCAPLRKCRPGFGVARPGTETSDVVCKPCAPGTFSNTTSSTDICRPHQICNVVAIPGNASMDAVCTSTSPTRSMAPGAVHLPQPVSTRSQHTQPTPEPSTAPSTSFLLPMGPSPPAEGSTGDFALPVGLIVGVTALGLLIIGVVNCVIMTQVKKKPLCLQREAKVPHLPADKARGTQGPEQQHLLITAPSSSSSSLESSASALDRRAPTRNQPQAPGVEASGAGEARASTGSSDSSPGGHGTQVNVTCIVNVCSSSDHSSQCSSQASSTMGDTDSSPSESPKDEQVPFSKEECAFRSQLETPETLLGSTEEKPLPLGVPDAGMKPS
Procedure: CHO stable cells highly expressing human TNFR2 were used for the experiment (the same as CHO-TNFR2 in Example 4). The CHO-TNFR2 cells were digested, washed twice with DPBS, then stained with Live/Dead (L/D) (20 minutes at room temperature), and plated at a density of 1×10⁵ cells/50 μl/well. A test anti-TNFR2 antibody was diluted to 6 μg/ml with a staining buffer as the starting concentration: the antibody was subjected to 3.33-fold gradient dilution, with a total of 7 concentration points. The diluted antibody was added to the plated cells at 50 μl/well, and the mixture was mixed well by gentle pipetting, and incubated at 4° C. for 30 minutes. Then the diluted 100 ng/ml of human TNFα-biotin was added at 100 μl/well, and the mixture was mixed well by gentle pipetting, and then incubated at 4° C. for 30 minutes. The mixture was washed twice with a staining buffer, and then 0.12 μg/ml PE-streptavidin (BioLegend, Cat #405204) was added at 100 μl/well; the resulting mixture was incubated at 4° C. for 30 minutes. The mixture was washed twice with a staining buffer, and then 150 μl of staining buffer was added to resuspend the cells; signals were detected by a flow cytometer (Thermo Attune NxT). The inhibitory curve of an antibody was drawn with antibody concentration as the abscissa and corresponding MFI value as the ordinate, and fitted with four parameters (GraphPad Prism9) to calculate the IC50 value. The smaller the IC50 value, the stronger the ability of an antibody to inhibit the binding of human TNFα to human TNFR2. The blocking effect of a humanized antibody was normalized to its corresponding human-murine chimeric WT antibody. The higher the percentage value, the better the inhibitory effect of the humanized antibody.

% Relative activity (WT antibody/test antibody) [1]: 98% | % Relative activity (WT antibody/test antibody) [2]: 93.1%
B1: 001-Hu5 (antibody, V domains shown)
VH: EVQLVESGGGLVQPGGSLRLSCAASGFAFSTYDLSWVRQAPGKGLEWVAYINNGGISTYYSDTVKGRFTISRDNAKNTLYLQMNSLRAEDTAVYYCVRGPFYGSANYFDYWGQGTLVTVSS
VL: DIQMTQSPSSLSASVGDRVTITCRTSESIYSNLPWYQQKPGKSPKLLVYDATKLAEGVPSRFSGSGSGTDYTLTISSLQPEDFATYYCQHFWVTPWTFGQGTKVEIK
notes: Humanized form of #001; also called VH1 + VL4

% Relative activity (WT antibody/test antibody) [1]: 99.4% | % Relative activity (WT antibody/test antibody) [2]: 97.8%
B2: 001-Hu3 (antibody, V domains shown)
VH: B1 VH
VL: B1 VL with S43A, V48I
notes: Humanized form of #001; also called VH1 + VL3

% Relative activity (WT antibody/test antibody) [1]: 97.1% | % Relative activity (WT antibody/test antibody) [2]: 95.8%
B3: 001-Hu2 (antibody, V domains shown)
VH: B1 VH with T78S
VL: B1 VL with V48I, Y71F
notes: Humanized form of #001; also called VH2 + VL2

% Relative activity (WT antibody/test antibody) [1]: 98% | % Relative activity (WT antibody/test antibody) [2]: 97.4%
B4: 001-Hu1 (antibody, V domains shown)
VH: B1 VH
VL: B1 VL with S43A, V48L
notes: Humanized form of #001; also called VH1 + VL1

% Relative activity (WT antibody/test antibody) [1]: 101% | % Relative activity (WT antibody/test antibody) [2]: 93.7%
B5: 001-Hu4 (antibody, V domains shown)
VH: B1 VH with T78S
VL: B1 VL
notes: Humanized form of #001; also called VH2 + VL4
